Earlier results in paper PMC4652169.

Molecular target: IgG Fc Fc (Homo sapiens) [IgG part: P01857]
Experiment: given as Ka

## Protein A Z domain (ZWT) Z domain (from UniProt P02976)
  Kd: 0.0169 µM
